# Reference: the Human Domainome abundance scans (Beltran et al. 2025)
# ± gives the uncertainty stated by the source.
# B1: Serine/threonine-protein kinase A-Raf, residues 21 to 89; numbered along this chain, P10398 (parent)
# chain: VKVYLPNKQRTVVTVRDGMSVYDSLDKALKVRGLNQDCCVVYRLIKGRKTVTAWDTAIAPLDGEELIVE
# Variants of: B1
# Assay: abundance fitness (aPCA) (normalised: wild type 0, dead -1); higher = more abundant; growth selection in yeast, the domain comes from the species named
# Details: Homo sapiens
row,Variant,abundance fitness
1,C39F,-0.466 ± 0.13
2,L29M,0.191 ± 0.058
3,C39E,-1.16 ± 0.36
4,D23Y,-0.825 ± 0.21
5,Q36T,-0.162 ± 0.069
6,A53T,-0.127 ± 0.085
7,K49P,-0.445 ± 0.092
8,Y22Q,0.041 ± 0.054
9,G33A,-0.546 ± 0.12
10,G63V,-0.097 ± 0.06
11,T11Y,-0.351 ± 0.1
12,N35A,-0.188 ± 0.066
13,V40L,-0.259 ± 0.057
14,R10I,0.258 ± 0.11
15,I58D,-0.881 ± 0.34
16,T56K,-0.153 ± 0.049
17,K8C,-0.243 ± 0.068
18,Y22H,0.024 ± 0.2
19,L61T,-0.23 ± 0.097
20,T52Y,-0.188 ± 0.11
21,P6L,-0.804 ± 0.21
22,C39H,-0.171 ± 0.093
23,R32H,0.1 ± 0.18
24,G47W,-0.888 ± 0.17

row,Variant,abundance fitness
1,K2M,-0.217 ± 0.11
2,G63K,-0.722 ± 0.17
3,M19K,-0.223 ± 0.1
4,R32I,0.188 ± 0.13
5,G33T,-0.626 ± 0.2
6,L25W,-0.971 ± 0.19
7,T56A,0.021 ± 0.047
8,L5Q,-0.87 ± 0.21
9,L44R,-0.108 ± 0.044
10,V13M,-0.892 ± 0.19
11,C38V,-0.075 ± 0.063
12,V12N,-0.325 ± 0.17
13,V21W,-0.602 ± 0.092
14,E64C,-0.571 ± 0.21
15,K2R,0.038 ± 0.057
16,Y22E,-0.144 ± 0.085
17,Q36S,-0.178 ± 0.072
18,R16A,-0.027 ± 0.045
19,S20F,-0.844 ± 0.32
20,L29I,-0.907 ± 0.34
21,Q9H,-0.559 ± 0.28
22,T11Q,-0.1 ± 0.057
23,R43T,-0.225 ± 0.067
24,A59R,-0.007 ± 0.043

row,Variant,abundance fitness
1,K30Y,-0.403 ± 0.13
2,D17I,-0.221 ± 0.088
3,R43S,-0.305 ± 0.061
4,D37Q,0.14 ± 0.15
5,M19Y,-0.352 ± 0.18
6,N35G,-0.154 ± 0.041
7,A53Y,-0.377 ± 0.15
8,Q9W,-0.448 ± 0.064
9,R32M,0.12 ± 0.06
10,D37R,-0.198 ± 0.059
11,T14C,-0.251 ± 0.087
12,R48S,-0.288 ± 0.069
13,K49F,-0.63 ± 0.22
14,A53S,-0.058 ± 0.056
15,Y4V,0.011 ± 0.047
16,V3L,-0.191 ± 0.037
17,D17M,-0.144 ± 0.075
18,L25D,-0.717 ± 0.11
19,I45D,-0.1 ± 0.13
20,D17G,-0.096 ± 0.057
21,G18P,-0.659 ± 0.099
22,Y4H,0.048 ± 0.094
23,Y4I,-0.001 ± 0.15
24,A59S,0.002 ± 0.027

row,Variant,abundance fitness
1,G18H,-0.244 ± 0.13
2,R16L,-0.072 ± 0.042
3,A53K,-0.079 ± 0.06
4,R16Y,0 ± 0.087
5,G18Q,-0.305 ± 0.11
6,Y4P,-0.96 ± 0.23
7,V12L,-0.189 ± 0.041
8,A53Q,-0.078 ± 0.064
9,V41P,-0.555 ± 0.15
10,W54Y,-0.756 ± 0.2
11,A28C,-0.223 ± 0.11
12,S24A,0.174 ± 0.042
13,N35D,-0.132 ± 0.12
14,S24D,-0.887 ± 0.076
15,W54M,-0.499 ± 0.1
16,L61Q,-0.088 ± 0.089
17,S24Y,-0.487 ± 0.34
18,N7P,-0.861 ± 0.1
19,T52P,-1.04 ± 0.2
20,K46D,0.199 ± 0.2
21,L44A,-0.475 ± 0.07
22,T52L,0.052 ± 0.047
23,E64M,-0.085 ± 0.1
24,R32K,-0.369 ± 0.068

row,Variant,abundance fitness
1,K8G,0.16 ± 0.033
2,V40P,-0.925 ± 0.2
3,Y4G,-0.663 ± 0.069
4,L5A,-0.772 ± 0.15
5,D62S,0.036 ± 0.058
6,M19V,-0.057 ± 0.057
7,V3P,-1.01 ± 0.13
8,T14L,-0.172 ± 0.058
9,Y42F,-0.004 ± 0.069
10,V13I,0.039 ± 0.064
11,S24R,-0.914 ± 0.091
12,L25A,-0.919 ± 0.12
13,Y42M,-0.684 ± 0.13
14,V40C,-0.087 ± 0.072
15,T52I,0.141 ± 0.17
16,V21Q,-0.834 ± 0.25
17,V41L,-0.143 ± 0.036
18,Y42W,-0.366 ± 0.064
19,A28Y,-0.274 ± 0.14
20,C39M,-0.432 ± 0.1
21,W54K,-0.843 ± 0.13
22,P60Q,0.121 ± 0.066
23,N7I,-0.936 ± 0.15
24,Q9T,-0.209 ± 0.069

row,Variant,abundance fitness
1,Q9M,-0.149 ± 0.082
2,G33M,-0.037 ± 0.091
3,V40Y,-0.273 ± 0.093
4,K30E,-0.336 ± 0.088
5,S20A,-0.808 ± 0.14
6,V3R,-0.808 ± 0.089
7,L61C,-0.367 ± 0.31
8,T52A,-0.174 ± 0.062
9,A59C,-0.188 ± 0.11
10,A53C,-0.166 ± 0.11
11,D17K,0.017 ± 0.065
12,D23C,-0.908 ± 0.26
13,E65A,-0.044 ± 0.078
14,D26M,-0.119 ± 0.063
15,Q36F,-0.134 ± 0.12
16,L34H,-0.789 ± 0.22
17,V21I,-0.602 ± 0.43
18,I58K,-0.86 ± 0.21
19,L5S,-0.818 ± 0.1
20,R48W,-0.535 ± 0.082
21,A28P,-0.15 ± 0.083
22,N35Q,-0.221 ± 0.069
23,T14V,-0.126 ± 0.063
24,L61H,-0.312 ± 0.13

row,Variant,abundance fitness
1,A59Q,-0.008 ± 0.086
2,K30C,-0.583 ± 0.13
3,D37M,-0.499 ± 0.098
4,T56G,-0.21 ± 0.052
5,V21K,-0.493 ± 0.25
6,R48E,0.025 ± 0.087
7,M19G,-0.216 ± 0.064
8,Q36R,0.058 ± 0.083
9,R48D,-0.271 ± 0.094
10,R32Q,0.065 ± 0.044
11,D62L,-0.078 ± 0.054
12,V31M,-0.045 ± 0.082
13,E69D,-0.248 ± 0.079
14,D37N,-0.186 ± 0.15
15,D26K,-0.076 ± 0.083
16,K46E,0.102 ± 0.08
17,V3D,-0.794 ± 0.2
18,R48F,-0.216 ± 0.18
19,V41N,-0.836 ± 0.31
20,S24F,-0.349 ± 0.087
21,T11C,-0.064 ± 0.12
22,V15Q,-0.686 ± 0.15
23,N7D,0.039 ± 0.054
